Bounds are passed on as bounds.

As usually defined, the Kd is the equilibrium constant for the complex coming apart. What is called kon is the second-order rate constant of association.

The target of experiment [1] is T1, TAMRA-labeled effector peptide cs221B (5(6)-TAMRA label coupled on resin after synthesis).
T1 construct: also called TAMRA-cs221B
T1 peptide: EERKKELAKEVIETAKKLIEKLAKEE
Kind of experiment: FP titration, 1 nM TAMRA-labeled peptide, reducing conditions. The source says:
To test the effect of the conformational pre-equilibrium on effector binding, we introduced disulfide “staples” that lock the hinge in one conformation. Using FP we analyzed peptide binding to stapled versions of hinge cs221 (FIG. 5A,B). […] Using the pre-equilibrium model described above, the observed association rates provide an estimate of the fraction of hinge that is in state Y in absence of the peptide: a 200-fold higher observed on rate for the locked Y variant indicates a 200-fold higher fraction of hinge in state Y compared to the original hinge. Assuming that the locked Y variant is 100% in state Y and assuming that the microscopic rate constant k₂ is identical for the locked Y hinge and state Y of the original hinge, this would indicate that the original hinge is 99.5% in state X and 0.5% in state Y at equilibrium.
All FP measurements were performed at 25° C. in 96-well plates (Corning 3686) using a Synergy Neo2™ plate reader and a 530/590 nm filter cube. The buffer for all FP measurements was 20 mM Tris-HCl, 100 mM NaCl, 0.05% v/v TWEEN20 at pH 8. […] The polarization signal S (as calculated by the Neo2™ software) was fitted to the equation

Another experiment has as its target T2, effector protein 3hb03.
T2 construct: Three-helix bundle built around peptide cs074B
T2 chain: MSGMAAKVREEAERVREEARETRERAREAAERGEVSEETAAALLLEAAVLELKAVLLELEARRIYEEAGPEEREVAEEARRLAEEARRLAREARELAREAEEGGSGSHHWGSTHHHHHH
Kind of experiment: SEC binding experiment.

A further experiment concerns the target T3, effector protein 3hb04.
T3 construct: Three-helix bundle built around peptide cs074B
T3 chain: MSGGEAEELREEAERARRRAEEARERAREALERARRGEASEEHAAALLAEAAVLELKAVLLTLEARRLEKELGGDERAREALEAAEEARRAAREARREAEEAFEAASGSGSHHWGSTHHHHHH
Put plainly: SEC binding experiment.

The next experiment deals with T4, effector protein 3hb08.
T4 construct: Three-helix bundle built around peptide cs074B
T4 chain: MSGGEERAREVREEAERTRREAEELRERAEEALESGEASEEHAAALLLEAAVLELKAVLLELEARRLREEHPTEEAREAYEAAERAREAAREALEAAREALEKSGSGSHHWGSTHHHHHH
Kind of experiment: SEC binding experiment.

Another experiment deals with T5, effector protein 3hb11.
T5 construct: Three-helix bundle built around peptide cs074B
T5 chain: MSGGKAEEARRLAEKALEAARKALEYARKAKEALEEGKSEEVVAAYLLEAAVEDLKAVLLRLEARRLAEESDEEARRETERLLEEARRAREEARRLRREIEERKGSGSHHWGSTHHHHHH
Put plainly: SEC binding experiment.

A further experiment concerns the target T6, effector protein 3hb12.
T6 construct: Three-helix bundle built around peptide cs074B
T6 chain: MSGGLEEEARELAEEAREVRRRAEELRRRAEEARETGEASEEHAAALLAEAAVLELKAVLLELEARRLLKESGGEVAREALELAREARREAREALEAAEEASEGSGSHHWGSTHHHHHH
Kind of experiment: SEC binding experiment.

The target of experiment [2] is T7, TAMRA-labeled effector peptide cs074B (5(6)-TAMRA label coupled on resin after synthesis).
T7 construct: Chemically synthesized; also called TAMRA-cs074B
T7 peptide: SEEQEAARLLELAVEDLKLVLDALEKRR
Put plainly: fluorescence polarization titration; TAMRA-peptide constant, hinge varied. The source says:
(§1) We used our hinge design approach to generate hinge-peptide pairs that span a wide structural space (FIGS. 1D, 2A, 6, 7). We experimentally tested multiple rounds of designs, using both DHRs (21) and helical junctions (22) as input scaffolds, and improving individual steps of the design pipeline between iterations. Designs for which hinge and GFP-fused peptide were soluble and interacted as judged by size exclusion chromatography (SEC, FIGS. 7-8) were selected for further characterization by fluorescence polarization (FP). […] To circumvent the bottleneck of finding soluble peptide sequences, we also sought to design hinges that bind to a given target peptide. Starting from design cs201, we used a modified version of our design pipeline to redesign the hinge to bind peptides cs074B or cs221B, respectively, which have similar hydrophobic fingerprints as the original target peptide cs201B.
(§2) All FP measurements were performed at 25° C. in 96-well plates (Corning 3686) using a Synergy Neo2™ plate reader and a 530/590 nm filter cube. The buffer for all FP measurements was 20 mM Tris-HCl, 100 mM NaCl, 0.05% v/v TWEEN20 at pH 8. Titrations were carried out in 96-well format, with 4 replicates per plate and 24 data points per titration (23 steps of two-fold serial dilution of hinges in the presence of TAMRA-labeled peptide at a constant concentration between 0.1 nM and 1 nM) with a final sample volume of 80 μl per well. Titration plates were incubated overnight at room temperature before measuring to ensure complete equilibration. The polarization signal S (as calculated by the Neo2™ software) was fitted to the equation
On the technique in general: Fluorescence polarisation rises when a labelled molecule tumbles more slowly, as on binding a larger partner.

The target of experiment [3] is T7, TAMRA-labeled effector peptide cs074B. Put plainly: fluorescence polarization kinetics; slope of kapp against hinge concentration. How it is done: as §2
(§3) For FP kinetics experiments a 2× peptide solution and 8 different 2× hinge solutions at different concentrations were prepared separately. 40 μl of each hinge solution were mixed with 40 μl peptide solution using a multichannel pipet and the measurement was started immediately after mixing. Polarization signals S at each concentration were fitted individually to the equation

Experiment [4] deals with T1, TAMRA-labeled effector peptide cs221B. Put plainly: fluorescence polarization titration; 1 nM TAMRA-peptide, unlabeled hinge varied. The procedure:
as §2

Experiment [5] deals with T7, TAMRA-labeled effector peptide cs074B. Kind of experiment: fluorescence polarization titration; TAMRA-peptide constant, unlabeled hinge varied. The procedure: as §2
A further experiment deals with T8, effector protein 3hb32.
T8 chain: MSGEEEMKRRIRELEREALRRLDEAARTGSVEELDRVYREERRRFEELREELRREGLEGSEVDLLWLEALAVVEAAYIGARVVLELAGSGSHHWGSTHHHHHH
Kind of experiment: SEC binding experiment.

Experiment [6] addresses T9, TAMRA-labeled effector peptide cs269B (5(6)-TAMRA label coupled on resin after synthesis).
T9 construct: also called TAMRA-cs269B
T9 peptide: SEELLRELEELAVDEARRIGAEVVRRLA
Put plainly: fluorescence polarization titration; TAMRA-peptide constant, hinge varied.
From the text: as §1, §2

Experiment [7] has as its target T9, TAMRA-labeled effector peptide cs269B. Kind of experiment: fluorescence polarization kinetics; 5 nM TAMRA-peptide, slope of kapp against hinge concentration.
For experiment [8], the target named is T10, TAMRA-labeled effector peptide js007B (5(6)-TAMRA label coupled on resin after synthesis).
T10 construct: also called TAMRA-js007B
T10 peptide: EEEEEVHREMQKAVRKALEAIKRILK
Put plainly: fluorescence polarization titration; TAMRA-peptide constant, hinge varied.
From the text: as §1, §2

The target in experiment [9] is T10, TAMRA-labeled effector peptide js007B. Kind of experiment: fluorescence polarization kinetics; slope of kapp against hinge concentration. The procedure:
as §2, §3

The next experiment has as its target T11, effector protein 3hb24.
T11 chain: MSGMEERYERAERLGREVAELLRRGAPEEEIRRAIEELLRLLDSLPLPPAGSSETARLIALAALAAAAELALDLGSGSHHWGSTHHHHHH
Put plainly: SEC binding experiment.

In experiment [10] the target is T12, TAMRA-labeled effector peptide cs230B (5(6)-TAMRA label coupled on resin after synthesis).
T12 construct: also called TAMRA-cs230B
T12 peptide: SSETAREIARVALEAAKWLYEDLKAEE
Put plainly: fluorescence polarization titration; TAMRA-peptide constant, hinge varied.
From the text: as §1, §2

B1: variant cs221_lockedX, reducing conditions (DTT) (designed binder)
chain: MSGEMKEEIRRLAEELRERTKDEEVRELAREAARLAEESDDEEVKEVVKKALEAALKSKDEEVIRLLLLAAVCAAAAARSGSPEEKLEIAKKALELAMKSKDEEVIRLALLAAVLACRSDDEEVLKKVKEALEKAMESKDVEEIRERLREAVEVARAGSGSHHWGSTHHHHHH
notes: also called locked X with DTT
B1: the binding result in experiment [1] is reported as “binds”.

B2: hinge cs074 (designed binder)
chain: MSGDEEVQEAVERAEELREEAEELIKKARKTGDPELLRKALEALKEAVRAVKEAIKRNPDNEEAVKTAVRLARELLKVAEELKERAEKTGDPRLLLLAAEAIAWAIEAVFLAAKASENTEGALEAARAAVKLAEVAKRIAKLLQRDAKKEGDPELLKLALRALELAVRAVELAIKENPDNEEAVETAKRLAEELRKVAELLEERAKETGDPELQELAKRAKEVADRARELAKKSNPNNGSGSHHWGSTHHHHHH
notes: De novo designed two-state hinge; the entry includes the C-terminal SNAC/His tag
For the molecule B2, the binding result in the experiment with effector protein 3hb03, with effector protein 3hb04, with effector protein 3hb08, in the experiment with effector protein 3hb11 and with effector protein 3hb12 was “binds” in each case. In addition, in experiment [2], the Kd amounted to 0.0005 µM. The kon in experiment [3] came to 64000 M⁻¹ s⁻¹.

B3: FRET(extension) cs221F, unlabeled (designed binder)
chain: MSGEMVEEIEKLAEELAKKTKDCEVKKLAKKAAELAKKSTDEMKKEIVKDALELALRTKDEEVIRLALKAAVLAAESDDEEVKEVVKKALEAALKSKDEEVIRLLLLAAVLAAAAARSGSPEEKLEIAKKALELAMKSKDEEVIRLALLAAVLAARSDDEEVLKIVKKALELAMESKDVEVIRLALEAAVLAARSTDPEKKKCVYEALEKAMESKDEEEIKKELKAAVEKARSTEGSGSHHWGSTHHHHHH
notes: also called unlabeled extended hinge cs221F
Turning to B3, in [4], the equilibrium dissociation constant (Kd) came to 0.023 µM.

B4: FRET(extension) cs074F, unlabeled (designed binder)
chain: DEEVQEAVERAEELREEAEELIKKARKTGDPELLRKALEALECAVRAVEEAIKRNPDNDEAVETAVRLARELKKVAEELQERAKKTGDPELLKLALRALKVAVRAVKLAIKSNPDNEEAVKTAVRLARELLKVAEELKERAEKTGDPRLLLLAAEAIAWAIEAVFLAAKASENTEGALEAARAAVKLAEVAKRIAKLLQRDAKKEGDPELLKLALRALELAVRAVELAIKENPDNDEAVETAVRLARELKKVAEELQERAKKTGDPELLKLALRALEVAVRAVELAIKSNPDNEEAVETAKRLAEELRKVAELLEERACETGDPELQELAKRAKEVADRARELAKKSNPNNGSHHHHHH
notes: also called unlabeled extended hinge cs074F
Take B4: in experiment [3], the kon was determined as 100000 M⁻¹ s⁻¹. Moreover, the dissociation constant Kd in [5] is < 0.002 µM.

B5: hinge cs269 (designed binder)
chain: MSGDEERVRELAERASREAERAVRSGSEESLEEALRNVEELIRKSDSEEARVRVAEAAVRAAAEAAARSGTVEAAAVAVIFTARVLQIVSSSEEAVVRVLAAAAAAAARVAVELGTEEALETALRFVELLVRLADSDEARQRVLRSASESARRSAEESGSERAREVAERFRERIERNQGSGSHHWGSTHHHHHH
Turning to B5, in the experiment with effector protein 3hb32, the binding result is on record as “binds”. In addition, in [6], the Kd came to 0.083 µM. This molecule also gave a kon in experiment [7] of 2500 M⁻¹ s⁻¹.

B6: hinge js007 (designed binder)
chain: MSGSEEVNERVKQLAEKAKEATDKEEVIEIVKELAELAKQSTDPNLVAEVVRALTEVAKTSTDTELIQEIVKVLLELARRLTDPQLLLEVLKSIAELLKELAEKTGNETAKLAALVAQIAAEVVEMALRAEKTHPGSEIVKLAVELVQKVAEIVLIAAQLMLDKPNSDEVRKVLKEVEKVAREALKALREAKRHPDSQKARDEIKEASQKAEEVKERIERAQEGSGSHHWGSTHHHHHH
For B6, in [8], the Kd came out at 0.0057 µM. In addition, the kon in [9] stood at 78000 M⁻¹ s⁻¹.

B7: hinge cs230 (designed binder)
chain: MSGTKEEKERIERIEKEVRSPDPENILEAVRKALELFRENPSEEAKELLKRAIEAALRSEDERAILEALRAALEAYRQGAGDREGLLEAIRVAIRRAAESEDERAILEAVRAARILLEAERTEEAKELLRVAIERAKKSPDPEAQREAKRAEEELRKEDGSGSHHWGSTHHHHHH
On to B7, for which, in the experiment with effector protein 3hb24, the binding result is “binds”. For the same molecule, the Kd in experiment [10] came out at 2.8 µM.
